Assay results as given in patent US20210364527A1 (QUANTUM SI, published 2021).
Numbering of substitutions follows the chain as printed. Like-named read-outs stand apart in the source and are kept apart here. Primed or numbered codes have the meaning given here. Ends that are not written are not given here. FITC′ = not defined here

T1: RA peptide RAKLDEESILKQK (XAKLDEESILKQK, X = R)
T1 construct: Biolayer interferometry single-point screen of UBR-box homologs
T1 peptide: RAKLDEESILKQK

T2: KA peptide KAKLDEESILKQK (XAKLDEESILKQK, X = K)
T2 construct: Biolayer interferometry single-point screen of UBR-box homologs
T2 peptide: KAKLDEESILKQK

T3: LA peptide LAKLDEESILKQK (XAKLDEESILKQK, X = L)
T3 construct: Immobilized on the biolayer interferometry sensor
T3 peptide: LAKLDEESILKQK

T4: IA peptide IAKLDEESILKQK (XAKLDEESILKQK, X = I)
T4 construct: Immobilized on the biolayer interferometry sensor
T4 peptide: IAKLDEESILKQK

T5: VA peptide VAKLDEESILKQK (XAKLDEESILKQK, X = V)
T5 construct: Immobilized on the biolayer interferometry sensor
T5 peptide: VAKLDEESILKQK

T6: F peptide FAKLDEESILKQK (XAKLDEESILKQK, X = F)
T6 construct: Immobilized on the biolayer interferometry sensor
T6 peptide: FAKLDEESILKQK

T7: IQ peptide IQKLDEESILKQK (XXKLDEESILKQK, XX = IQ)
T7 construct: Biolayer interferometry
T7 peptide: IQKLDEESILKQK

T8: VR peptide VRKLDEESILKQK (XXKLDEESILKQK, XX = VR)
T8 construct: Biolayer interferometry
T8 peptide: VRKLDEESILKQK

T9: FITC-labeled FA peptide FAKLDEESILKQK-FITC
T9 peptide: FAKLDEESILKQK-{FITC′}

T10: FITC-labeled YA peptide YAKLDEESILKQK-FITC
T10 peptide: YAKLDEESILKQK-{FITC′}

T11: FITC-labeled WA peptide WAKLDEESILKQK-FITC
T11 peptide: WAKLDEESILKQK-{FITC′}

T12: Y peptide YAKLDEESILKQK (XAKLDEESILKQK, X = Y)
T12 construct: Immobilized on the biolayer interferometry sensor
T12 peptide: YAKLDEESILKQK

T13: W peptide WAKLDEESILKQK (XAKLDEESILKQK, X = W)
T13 construct: Immobilized on the biolayer interferometry sensor
T13 peptide: WAKLDEESILKQK

T14: FITC-labeled LA peptide LAKLDEESILKQK-FITC
T14 peptide: LAKLDEESILKQK-{FITC′}

T15: FITC-labeled IA peptide IAKLDEESILKQK-FITC
T15 peptide: IAKLDEESILKQK-{FITC′}

T16: FITC-labeled VA peptide VAKLDEESILKQK-FITC
T16 peptide: VAKLDEESILKQK-{FITC′}

T17: I (IAWLVK)
T17 chain: IAWLVK

T18: LI
T18 construct: also called LIFAGK
T18 chain: LIFAGK

T19: IF
T19 construct: also called IFAGK
T19 chain: IFAGK

T20: Kluyveromyces lactis UBR-box domain (PS528) (Kluyveromyces lactis, UniProt O60014 101-182)
T20 construct: UBR-streptavidin complex in fluorescence polarization
T20 sequence: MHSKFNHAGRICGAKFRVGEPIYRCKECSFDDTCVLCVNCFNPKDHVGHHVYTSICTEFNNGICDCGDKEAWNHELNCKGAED

T21: ClpS from Thermosynochoccus elongatus (teClpS) (Thermosynechococcus elongatus, UniProt Q8DJY3 6-94)
T21 construct: Dye-labelled or streptavidin-complexed depending on the assay; also called Thermosynechococcus elongatus ClpS
T21 sequence: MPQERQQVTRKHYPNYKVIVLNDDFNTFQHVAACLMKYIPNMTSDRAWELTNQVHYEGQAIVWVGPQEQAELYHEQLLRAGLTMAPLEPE

B1: Vombatus ursinus UBR-box domain (PS522) (other)
chain: MLCGKVFKSGETTYSCRDCAIDPTCVLCMNCFQSSVHKNHRYKMHTSTGGGFCDCGDTEAWKTGPFCTIHEP
B2: Kluyveromyces marxianus UBR1 (PS621) (other)
chain: T20 sequence with N6S, R17K, V47T, S54T, E75T, N77F, G80A, A81E, D83G
notes: UBR-streptavidin complex in fluorescence polarization
B3: PS558 (other)
chain: MTATTADPDRTTAEKTTKKARRSGQPKRQPRYHVILWNDNDHTYQYVVAMLQQLFGHPATTGLKLATEVDRTGRAVILTTTREHAELKRDQIHAFGADRLLARSKGAMSASIEPEAE
B4: PS372 (ClpS homolog) (other)
chain: MAFPARGKTAPKNEVRRQPPYNVILLNDDDHTYRYVIEMLQKIFGFPPEKGFQIAEEVDRTGRVILLTTSKEHAELKQDQVHSYGPDPYLGRPCSGSMTCVIEPAV
notes: also called PS372-Bt; PS372-Bt-mPEG4
B5: Planctomycetia bacterium ClpS homolog (PS557) (other)
chain: MPTAASATESAIEDTPAPARPEVDGRTKPKRQPRYHVVLWNDDDHTYQYVVVMLQSLFGHPPERGYRLAKEVDTQGRVIVLTTTREHAELKRDQIHAFGYDRLLARSKGSMKASIEAEE
B6: FITC-labeled RA peptide RAKLDEESILKQK-FITC (peptide)
peptide: RAKLDEESILKQK-{FITC′}
B7: RA peptide (N-terminal arginine, penultimate alanine; rest of sequence not given) (peptide)
peptide: RAKLDEESILKQK-{FITC′}
B8: IR peptide IRKLDEESILKQK (XXKLDEESILKQK, XX = IR) (peptide)
peptide: IRKLDEESILKQK
notes: Biolayer interferometry

Assays:
[1] = molecular target: T1, RA peptide RAKLDEESILKQK …; assay: biolayer interferometry single-point screen, 30 C
[2] = molecular target: T2, KA peptide KAKLDEESILKQK …; assay: biolayer interferometry single-point screen, 30 C
[3] = molecular target: B7; assay: fluorescence polarization
[4] = molecular target: T2, KA peptide KAKLDEESILKQK …; assay: BLI heatmap, single-point screen
[5] = molecular target: B6; assay: fluorescence polarization titration with increasing concentration of UBR protein
[6] = molecular target: T3, LA peptide LAKLDEESILKQK …; assay: biolayer interferometry as in Example 12
[7] = molecular target: T4, IA peptide IAKLDEESILKQK …; assay: biolayer interferometry as in Example 12
[8] = molecular target: T5, VA peptide VAKLDEESILKQK …; assay: biolayer interferometry as in Example 12
[9] = molecular target: T6, F peptide FAKLDEESILKQK (XAKLDEESILKQK, …); assay: biolayer interferometry as in Example 12
[10] = molecular target: B8; assay: biolayer interferometry
[11] = molecular target: T7, IQ peptide IQKLDEESILKQK …; assay: biolayer interferometry
[12] = molecular target: T8, VR peptide VRKLDEESILKQK …; assay: biolayer interferometry
[13] = molecular target: T9, FITC-labeled FA peptide …; assay: fluorescence polarization, single point
[14] = molecular target: T10, FITC-labeled YA peptide …; assay: fluorescence polarization, single point
[15] = molecular target: T11, FITC-labeled WA peptide …; assay: fluorescence polarization, single point
[16] = molecular target: T3, LA peptide LAKLDEESILKQK …; assay: biolayer interferometry as in Example 12
[17] = molecular target: T4, IA peptide IAKLDEESILKQK …; assay: biolayer interferometry as in Example 12
[18] = molecular target: T5, VA peptide VAKLDEESILKQK …; assay: biolayer interferometry as in Example 12
[19] = molecular target: T6, F peptide FAKLDEESILKQK (XAKLDEESILKQK, …); assay: biolayer interferometry as in Example 12
[20] = molecular target: T12, Y peptide YAKLDEESILKQK (XAKLDEESILKQK, …); assay: biolayer interferometry, peptide immobilized on the sensor, 30 C
[21] = molecular target: T13, W peptide WAKLDEESILKQK (XAKLDEESILKQK, …); assay: as above
[22] = molecular target: T14, FITC-labeled LA peptide …; assay: fluorescence polarization, FITC-peptide with ClpS:streptavidin complex, 23 C
[23] = molecular target: T15, FITC-labeled IA peptide …; assay: as above
[24] = molecular target: T16, FITC-labeled VA peptide …; assay: as above
I (IAWLVK) = molecular target: T17, I (IAWLVK); assay: dynamic sequencing of EFIAWLVK with PS610, PS372, hTET and pfuTET
[25] = molecular target: T3, LA peptide LAKLDEESILKQK …; assay: biolayer interferometry as in Example 12
[26] = molecular target: T4, IA peptide IAKLDEESILKQK …; assay: biolayer interferometry as in Example 12
[27] = molecular target: T5, VA peptide VAKLDEESILKQK …; assay: biolayer interferometry as in Example 12
[28] = molecular target: T6, F peptide FAKLDEESILKQK (XAKLDEESILKQK, …); assay: biolayer interferometry as in Example 12
LI = molecular target: T18, LI; assay: 3-binder dynamic sequencing of [..]; binder assigned by the binding preference in Table 1
IF = molecular target: T19, IF; assay: as above
[29] = molecular target: T20, Kluyveromyces lactis UBR-box domain …; assay: fluorescence polarization titration with increasing concentration of UBR protein
[30] = molecular target: T20, Kluyveromyces lactis UBR-box domain …; assay: fluorescence polarization
[31] = molecular target: T21, ClpS from Thermosynochoccus elongatus …; assay: biolayer interferometry

B1: binds [1]; binds [2].

For B2, the Kd [3] was 321 nM, the binding result [4] was “binds” and the Kd [5] was 420 nM.

B3: binds [6]; binds [7]; binds [8]. B3: no binding [9].

B4: binds [10]; binds [11]; no binding [12]. B4: no binding [13]; no binding [14]; no binding [15]. B4: binds [16]; binds [17]; binds [18]. B4: no binding [19]; no binding [20]; no binding [21]. B4: binds [22]; binds [23]; binds [24]. B4: binds (I (IAWLVK)).

B5: binds [25]; binds [26]; binds [27]. B5: no binding [28]; binds (LI); binds (IF).

In the case of B6, the Kd [29] is reported as 460 nM.

Work on B7 yielded a Kd [30] of 403 nM.

B8: binds [31].
